Data: paper PMC6335420, “The cell cycle regulator GpsB functions as cytosolic adaptor for multiple cell wall enzymes” (Nature Communications, 2019)
“Also recorded” adds a separate entry of the source. No end group written: not given here.

B3: full-length BsGpsB (Bacillus subtilis GpsB) (natural protein, B. subtilis, UniProt P0CI74 1-98, looked up)
chain: MLADKVKLSAKEILEKEFKTGVRGYKQEDVDKFLDMIIKDYETFHQEIEELQQENLQLKKQLEEASKKQPVQSNTTNFDILKRLSNLEKHVFGSKLYD
notes: GpsB, Bacillus subtilis; purification of the full-length protein is not described here; source: E. coli BL21(DE3) used for recombinant protein production)
B7: SpGpsB_(4-63) (domain or fragment, S. pneumoniae R6, UniProt Q8DR57 4-63, looked up)
chain: IIFSAKDIFEQEFGREVRGYNKVEVDEFLDDVIKDYETYAALVKSLRQEIADLKEELTRK
notes: GpsB, Streptococcus pneumoniae R6, residues 4-63; also called slightly truncated form of the N-terminal domain of SpGpsB; source: E. coli, purified (Ni-NTA, TEV, Superdex 75); not shown: His6, N-terminal, cleaved

What was measured:
[1] = biological target: T1, SpPBP2a_(23-45)^Arg31Lys,Arg33Lys, TAMRA-labelled (S. pneumoniae R6, UniProt Q8DNB6 23-45, Gly43 to cysteine | Arg31Lys | Arg33Lys, TAMRA (maleimide) label); assay: fluorescence polarisation; details: both partners purified
T1 construct: also called SpPBP2a^Arg31Lys,Arg33Lys; source: E. coli, His-tagged MBP fusion purified (Ni-NTA), labelled, TEV-cleaved, ultrafiltration
T1 peptide: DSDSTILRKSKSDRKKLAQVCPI

[2] = biological target: T2, SpPBP2a_(23-45)^Arg31Lys, TAMRA-labelled (S. pneumoniae R6, UniProt Q8DNB6 23-45, Gly43 to cysteine | Arg31Lys, TAMRA (maleimide) label); assay: fluorescence polarisation; details: both partners purified
T2 construct: also called SpPBP2a^Arg31Lys; source: E. coli, His-tagged MBP fusion purified (Ni-NTA), labelled, TEV-cleaved, ultrafiltration
T2 peptide: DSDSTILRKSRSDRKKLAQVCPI

[3] = biological target: Fluorescein-SpPBP2b1-17 (S. pneumoniae R6); assay: fluorescence polarisation; GpsB protein titrated into TAMRA- or fluorescein-labelled peptide; 10 mM Tris.HCl pH 8.0, 250 mM NaCl, 0.1% reduced Triton X-100; all data fitted to a 1:1 interaction model, Kd ± standard error
[4] = biological target: T3, SpPBP2a_(23-45), TAMRA-labelled (S. pneumoniae R6, UniProt Q8DNB6 23-45, Gly43 to cysteine, TAMRA (maleimide) label); assay: fluorescence polarisation; details: both partners purified
T3 construct: source: E. coli, His-tagged MBP fusion purified (Ni-NTA), labelled, TEV-cleaved, ultrafiltration
T3 peptide: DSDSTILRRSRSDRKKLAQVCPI

BsPBP1_17-914 = assay: SPR binding to immobilised BsPBP1_17-914; parameters: species or system Bacillus subtilis; details: chip coated with BsPBP1_17-914, even when 25 µM BsGpsB injected
From the text: (§1) BsPBP1 and BsPBP1_17-914 were immobilised on the surface of a CM5 chip (GE Healthcare). For the BsPBP1/YrrSΔ13-16 titration 800 RUs of BsPBP1 were immobilised on the chip surface; for the BsPBP1/BsGpsB titration 1200 RUs of BsPBP1 were immobilised. YrrSΔ13-16, which lacks residues 13–16 in the cytoplasmic domain, was used in these experiments to minimise non-specific interactions with the chip matrix; binding of YrrSΔ13-16 to the reference surface was negligible and the deletion of residues 13–16 leaves the GpsB-binding motif intact. The YrrSΔ13-16 titration was carried out in single-cycle mode, without regenerating the surface between successive injections of protein, because harsh reagents were necessary for full surface regeneration.

full-length BsPBP1 = assay: SPR binding to immobilised full-length BsPBP1; parameters: species or system Bacillus subtilis
From the text: as §1

[5] = biological target: T4, full-length BsPBP1 (Bacillus subtilis PBP1) (B. subtilis, UniProt P39793 1-914); assay: SPR; BsPBP1 or BsPBP1_(17-914) immobilised on a CM5 chip (1200 RUs of BsPBP1); BsGpsB injected; 10 mM Tris.HCl pH 8.0, 250 mM NaCl, 0.1% reduced Triton X-100; details: both partners purified
T4 construct: also called wild-type BsPBP1; source: E. coli, purified from membrane pellets (His select resin, thrombin, Superdex S200)
T4 sequence (looked up): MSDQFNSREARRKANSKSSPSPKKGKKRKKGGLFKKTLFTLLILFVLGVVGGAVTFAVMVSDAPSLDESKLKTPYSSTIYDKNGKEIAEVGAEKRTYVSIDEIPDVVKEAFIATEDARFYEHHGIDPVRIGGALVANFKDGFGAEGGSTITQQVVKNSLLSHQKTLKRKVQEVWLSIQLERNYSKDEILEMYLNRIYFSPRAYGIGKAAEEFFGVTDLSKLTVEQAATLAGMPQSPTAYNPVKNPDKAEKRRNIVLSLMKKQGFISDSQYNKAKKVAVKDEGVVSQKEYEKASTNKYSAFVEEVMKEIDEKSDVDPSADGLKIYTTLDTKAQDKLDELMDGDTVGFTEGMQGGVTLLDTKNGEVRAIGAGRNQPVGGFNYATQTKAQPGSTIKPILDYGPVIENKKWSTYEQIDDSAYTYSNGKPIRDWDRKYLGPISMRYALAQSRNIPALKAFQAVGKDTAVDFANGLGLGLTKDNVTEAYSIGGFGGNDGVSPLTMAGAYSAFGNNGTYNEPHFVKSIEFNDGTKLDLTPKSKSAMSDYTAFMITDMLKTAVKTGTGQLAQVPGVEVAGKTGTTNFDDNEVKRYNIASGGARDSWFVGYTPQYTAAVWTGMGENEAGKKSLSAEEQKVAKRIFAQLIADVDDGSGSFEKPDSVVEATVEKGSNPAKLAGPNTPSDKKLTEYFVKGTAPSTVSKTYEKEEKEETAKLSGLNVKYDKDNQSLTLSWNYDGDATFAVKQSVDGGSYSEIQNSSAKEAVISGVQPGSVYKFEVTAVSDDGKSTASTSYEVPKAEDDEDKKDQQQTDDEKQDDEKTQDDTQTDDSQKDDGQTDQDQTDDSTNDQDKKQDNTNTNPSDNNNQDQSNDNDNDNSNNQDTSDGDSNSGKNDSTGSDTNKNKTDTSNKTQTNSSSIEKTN

[6] = biological target: B3; assay: fluorescence polarisation; GpsB protein titrated into fluorescently labelled peptide; 10 mM Tris.HCl pH 8.0, 250 mM NaCl, 0.1% reduced Triton X-100; fit to a 1:1 interaction model; details: both partners purified
BsGpsB_(1-68) = biological target: T5, BsGpsB_(1-68) (B. subtilis, UniProt P0CI74 1-68); assay: as above; details: both partners purified
T5 construct: GpsB, Bacillus subtilis, residues 1-68; also called N-terminal domain of BsGpsB; source: E. coli, purified (Ni-NTA, thrombin, size exclusion)
T5 sequence (looked up): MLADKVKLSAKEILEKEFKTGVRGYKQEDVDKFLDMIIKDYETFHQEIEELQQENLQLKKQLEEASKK

[7] = biological target: T4, full-length BsPBP1 (Bacillus subtilis …); assay: SPR; details: both partners purified
SpGpsB_(4-63) = biological target: B7; assay: crystal structure; co-crystallisation of GpsB N-terminal domain with PBP peptide, 1:5 molar ratio protein:peptide, room temperature; details: both partners purified
[8] = biological target: the molecule itself; assay: as above

B1: SpGpsB_(1-63) (domain or fragment)
chain: MASIIFSAKDIFEQEFGREVRGYNKVEVDEFLDDVIKDYETYAALVKSLRQEIADLKEELTRK
notes: GpsB, Streptococcus pneumoniae R6, residues 1-63 (stop codon in place of Pro64); also called N-terminal domain of SpGpsB; wildtype SpGpsB_(1-63); source: E. coli, purified (Ni-NTA, thrombin, ammonium sulphate precipitation, gel filtration)
- fold reduction in affinity against wild type [1]: > 25 fold
- fold reduction in affinity against wild type [2]: 2 fold
- Kd [3]: > 3600 µM

B2: SpGpsB_(1-63)^Asp33Ala (domain or fragment)
chain: MASIIFSAKDIFEQEFGREVRGYNKVEVDEFLADVIKDYETYAALVKSLRQEIADLKEELTRK
notes: also called SpGpsB^Asp33Ala; source: E. coli, purified (Ni-NTA, thrombin, ammonium sulphate precipitation, gel filtration)
- fold reduction in affinity against wild type [4]: ~40 fold

Molecule: B3
- SPR binding (in words) (BsPBP1_17-914): does not interact; also recorded: no interaction
- Kd (full-length BsPBP1; SPR, PBP1-coated chip, full-length GpsB data fit 1:1 only over limited concentration range (avidity), BsGpsB1-68 supports 1:1, peer review file, read-out: affinity / Kd by SPR): 0.7 µM
- SPR binding (in words) (full-length BsPBP1; chip coated with wild-type BsPBP1 (1200 RU), submicromolar BsGpsB): submicromolar concentrations of BsGpsB bound to chips coated with the wild-type BsPBP1
- binding result [5]: binds

B4: BsPBP1_(1-32), TAMRA-labelled at position 16 (peptide, UniProt P39793 1-32, looked up)
peptide: MSDQFNSREARRKANC(TAMRA (maleimide))KSSPSPKKGKKRKKGG
notes: PBP1, Bacillus subtilis, residues 1-32; also called BsPBPA1_(1-32); BsPBP1A_(1-32); source: E. coli, His-tagged MBP fusion purified (Ni-NTA), labelled, TEV-cleaved, ultrafiltration
- binding result [6]: binds
- binding result (BsGpsB_(1-68)): binds

B5: BsYrrS_(Δ13-16) (natural protein)
chain: MSNNQSRYENRDANLVLNILIAIVSILIVVVAANLFINSPSSKDVSKDSETAQKQESPASGKTEKKSDEDIKDSKKDTSDSEKDSEKSSDSDSKKDDSSSKKDDSDSDSSSDSAGDGLKDAKVTEGGSSSDVEKTYENPDWKAVGTEQTGEHAATYDSSSQDWAEMLKAISYATGVSTDNMTVLWLGNNGSPQDAKGKILDKATGNKYQVTITWVDEKGWKPTKVEKLK
notes: source: E. coli BL21(DE3), purified from membranes (Ni-NTA, Superdex 200)
- Kd [7]: 0.02 µM

B6: SpPBP2a_(27-40) (peptide, UniProt Q8DNB6 27-40, looked up)
peptide: TILRRSRSDRKKLA
notes: PBP2a, Streptococcus pneumoniae, residues 27-40; also called 14-residue peptide of SpPBP2a; source: synthetic peptide
- binding result (SpGpsB_(4-63)): binds

Molecule: B7
- binding result [8]: binds
